Results published in FireProtDB (doi:10.1021/bi301421v).
Where “and” joins values, the source holds several entries; their conditions need not be identical. Equal values may be shown once.

B1: Arginase, O25949 (parent)
chain: MILVGLEAELGASKRGTDKGVRRLREALSATHGDVIKGMQTITQERCVLYKEFRYAKNFEDYYLFCKENLIPCMKEVFEKKEFPLILSSEHANMFGIFQAFRSVHKDKKIGILYLDAHADIHTAYDSDSKHIHGMPLGMVLNRVRSGFNRMSESEEKAWQKLCSLGLEKGGLEIDPKCLVYFGVRSTEQSERDVIRELQIPLFSVDAIRENMQEVVQKTKESLKAVDIIYLSLDLDIMDGKLFTSTGVRENNGLSFDELKQLLGLLLESFKDRLKAVEVTEYNPTVSIKHNNEEEKQVLEILDLIINSCKIKDKKHSFARSY

Variants of: B1
Details: Helicobacter pylori (strain ATCC 700392 / 26695); pH 7.2; Thermal; CD; Tris-HCl 20 mM; transition: 2; reversible: yes; structure 4G3H; whole UniProt chain shown

Variant: K157A
- Tm: 57.7 °C
- change of melting temperature, mutant - wild type (higher = more stable): -10.3 °C

Variant: S164A
- Tm: 70.7 °C
- change of melting temperature, mutant - wild type (higher = more stable): 0.7 °C

Variant: Q160A
- Tm: 64.4 °C and 62.8 °C
- change of melting temperature, mutant - wild type (higher = more stable): -5.6 °C and -5.2 °C

Variant: L162A
- change of melting temperature, mutant - wild type (higher = more stable): -2.7 °C and -7 °C

Variant: D126A
- Tm: 61 °C
- change of melting temperature, mutant - wild type (higher = more stable): -7 °C

Variant: W159A
- Tm: 51 °C
- change of melting temperature, mutant - wild type (higher = more stable): -17 °C

Variant: W159F
- Tm: 64.8 °C and 59.9 °C
- change of melting temperature, mutant - wild type (higher = more stable): -5.2 °C and -8.1 °C

Variant: E153A
- Tm: 69.8 °C
- change of melting temperature, mutant - wild type (higher = more stable): -0.2 °C

Variant: E156A
- Tm: 59 °C
- change of melting temperature, mutant - wild type (higher = more stable): -9 °C
